Eight molecules from patent US20210032312A1 (Janssen / Centocor, published 2021) can be followed below.

As usually defined, the EC50 is the concentration at which the effect is half-maximal. One may read the Kd as the concentration at which binding is half-saturated. As a reminder, the koff is a measure of how fast the partners let go of each other. A word on the kon: it is a measure of how fast the partners come together.

In one assay the target is T1, human CD8A on cells (human, UniProt P01732 22-235).
T1 construct: whole, on cells; also called CD8A receptors on primary human cytotoxic T cells
T1 sequence (P01732 22-235): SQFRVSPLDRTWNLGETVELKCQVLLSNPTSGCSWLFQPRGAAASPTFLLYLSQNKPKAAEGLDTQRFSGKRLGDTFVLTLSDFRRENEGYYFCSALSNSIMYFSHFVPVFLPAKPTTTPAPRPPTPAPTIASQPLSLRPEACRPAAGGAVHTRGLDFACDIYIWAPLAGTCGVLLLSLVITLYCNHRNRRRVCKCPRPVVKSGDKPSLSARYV
The assay is described as follows: MSD-CAT equilibrium cell-binding assay on primary human cytotoxic CD8 T cells. Here is the method: A MesoScale Discovery-Cell Affinity Technology (MSD-CAT) based equilibrium cell-binding assay was performed to determine the affinity of the top six anti-CD8A candidates binding to primary human cytotoxic T cell surface CD8A receptors. Each anti-CD8A FN3 domain at a constant concentration of […] was pre-incubated with 10 different concentrations of primary cytotoxic CD8 T cells (columns 2-11 in a row). Cell viability was checked prior to the binding measurements and a >85% viability was desired for valid analysis. Since these cells were from different donors, in case of donor-to-donor variations, only cells of the same donors were combined together. Each individual anti-CD8A FN3 domain binding was measured in replicates using cells from the same donors. […] Following the incubation the cells were spun down along with cell bound anti-CD8A FN3 domains and the unbound (free) anti-CD8A FN3 domains in the supernatants is quantified using MSD assays where biotinylated recombinant hCD8A-Fc protein was captured at 0.6 ug/mL in assay buffer to streptavidin MSD plates overnight ˜16 hours at 4° C. […] Plates were read immediately on the MSD Sector Imager 6000™ Reader for luminescence levels after adding MSD Read Buffer by diluting 1:4 of stock into H2O.
Raw MSD data were exported and analysed in Prism using a non-linear fit with variable slope function to derive the Bmax and Hillslope values. […]

Assay [1] concerns the target T2, human CD8A on primary human CD8+ T cells (human, UniProt P01732 22-235).
T2 construct: whole, on cells; also called Human T-cells; CD8 alpha
The assay can be described thus: flow cytometry on human CD8+ T cells. The procedure:
(§1) A full dose response binding curve was generated for the nineteen selected anti-CD8A FN3 domains. Each candidate was diluted to 20 μM in PBS followed by a 1:3 dilution series to generate either an 11-point or an 18-point dose response curve. Human or cyno CD8+ T cells were incubated with the diluted FN3 domain for 1 hour at 4° C. Cells were washed once with PBS and incubated with an anti-centyrin antibody (PAB25) for 1 hour at 4° C. The cells were washed twice with PBS, followed by incubation with a PE-secondary, anti-CD3-PacB, anti-CD4-APC, and a viability dye. Finally, cells were washed and resuspended in PBS for flow cytometric analysis using a BD Canto Instrument. CD8 T cells were defined as live CD3+CD4− cells. Median fluorescence intensity of the bound Centyrins (PE channel) and % of cells showing positive staining calculated using Cytobank software. Results were graphed using Prism and EC₅₀ values were calculated using the 4 parameter dose response variable slope equation.
Background: A flow cytometer gives signals particle by particle.

Assay [2] addresses T3, cynomolgus monkey CD8A on cyno CD8+ T cells (cynomolgus monkey, UniProt P01732 23-235 (human entry)).
T3 construct: also called cyno T-cells; Cyno CD8alpha
The assay can be described thus: flow cytometry on cyno CD8+ T cells. The procedure: as §1

The target in assay [3] is T2, human CD8A on primary human CD8+ T cells. The assay is described as follows: MSD-CAT equilibrium cell binding, primary human CD8 T cells. Here is the method: A MesoScale Discovery-Cell Affinity Technology (MSD-CAT) based equilibrium cell-binding assay was performed to determine the affinity of the top six anti-CD8A candidates binding to primary human cytotoxic T cell surface CD8A receptors. Each anti-CD8A FN3 domain at a constant concentration of […] was pre-incubated with 10 different concentrations of primary cytotoxic CD8 T cells (columns 2-11 in a row). Cell viability was checked prior to the binding measurements and a >85% viability was desired for valid analysis. Since these cells were from different donors, in case of donor-to-donor variations, only cells of the same donors were combined together. Each individual anti-CD8A FN3 domain binding was measured in replicates using cells from the same donors. Cells and FN3 domains were incubated overnight at 4° C. on a rotator to reach equilibrium. Following the incubation the cells were spun down along with cell bound anti-CD8A FN3 domains and the unbound (free) anti-CD8A FN3 domains in the supernatants is quantified using MSD assays where biotinylated recombinant hCD8A-Fc protein was captured at 0.6 ug/mL in assay buffer to streptavidin MSD plates overnight ˜16 hours at 4° C. After blocking the plate, supernatant with free anti-CD8A FN3 domains was added to the plate and incubated for 1 hr, then followed by SulfoTag pAb139 (In-house) detection at 1.6 ug/ml. A buffer control without any FN3 domain and hCD8A (plate background binding control) in column 1 and FN3 domain alone control without hCD8A (100% free/unbound) in column 12 were included. Mouse Anti-hCD8A mAb (mIgG1k, BD Biosciences, cat #555364, clone RPA-T8) was included as a positive control. Tencon27 was included in the initial assay validation as a negative control and no significant binding was observed, and therefore, was not included in the later cell binding due to the cell availability. Plates were read immediately on the MSD Sector Imager 6000™ Reader for luminescence levels after adding MSD Read Buffer by diluting 1:4 of stock into H2O.
Raw MSD data were exported and analysed in Prism using a non-linear fit with variable slope function to derive the Bmax and Hillslope values. Only those with converged Bmax values and hillslope within the range of −1.5˜−0.5 (ideal −1.0) will be considered for further analysis.

Assay [4] deals with T4, human CD8A-Fc (recombinant human CD8 alpha fused to Fc fragment of human IgG1) (human, UniProt P01732 22-182, limits assumed).
T4 construct: SPR ligand, captured by goat anti-human Fc; also called hCD8A-Fc; recombinant CD8 alpha; not shown: linker with flag (and polyhistidine) tag and Fc fragment of human IgG1; depends on which of the two constructs was used
T4 sequence (P01732 22-182 limits assumed): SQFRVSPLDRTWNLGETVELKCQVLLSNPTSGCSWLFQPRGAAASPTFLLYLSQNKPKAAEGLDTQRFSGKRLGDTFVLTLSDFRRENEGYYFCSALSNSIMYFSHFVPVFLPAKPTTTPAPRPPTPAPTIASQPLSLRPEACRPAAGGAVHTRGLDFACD
The assay can be described thus: SPR, dissociation rate on recombinant CD8 alpha. A general note: SPR reads the build-up and loss of mass on a sensor chip optically.

Assay [5] addresses T4, human CD8A-Fc (recombinant human CD8 …). The assay is described as follows: SPR (ProteOn), captured hCD8A-Fc, heterogeneous ligand fit, higher affinity population. Here is the method:
(§2) Human CD8A-Fc was then captured at five surface densities ranging from 200 to 1200 response units, leaving the 6th channel as empty channel control for GAH-Fc IgG surface. Binding was measured by flowing five different concentrations of anti-CD8A FN3 domains (1 μM diluted in a 3-fold dilution series) as analytes simultaneously in the horizontal orientation over the captured hCD8A-Fc surfaces, with a sixth analyte channel containing only running buffer PBST. All interactions were measured at 100 uL/min flow rate with association and dissociation times being 4, 30 minutes respectively. […] Data analyses were performed using Bio-Rad ProteOn Manager software (version 3.1.0.6). Raw data were double referenced by subtraction of the interspot (empty chip surface, no protein immobilized or captured) signals to correct the non-specific binding of the FN3 domain to the pre-coated GAH-Fc IgG surface, followed by a double referencing using the buffer blank response (to correct for any baseline drift resulting from ligand dissociation over time). […] Given that the GAH-Fc capture of hCD8A-Fc format is the least disruptive relative to other formats in introducing potential experimental artifacts (such as ligand activity loss and/or artificial eptiopes/heterogeneous ligand population due to amine coupling), it is considered that the results from the GAH-Fc capture experiments reported here represent the most reliable ProteOn SPR data, despite the non-conforming 1:1 Langmuir fits observed in many instances. A heterogeneous ligand model was chosen to fit the data assuming two different ligand species, either due to the heterogeneity in the ligand protein population or due to potential different mechanisms for each FN3 domain binding to the 2 hCD8A monomers in the Fc fusion protein.

Assay [6] shares this target. The assay can be described thus: SPR (ProteOn), captured hCD8A-Fc, heterogeneous ligand fit, lower affinity population; lower affinity population, heterogeneous ligand fit. The procedure:
Human CD8A-Fc was then captured at five surface densities ranging from 200 to 1200 response units, leaving the 6th channel as empty channel control for GAH-Fc IgG surface. Binding was measured by flowing five different concentrations of anti-CD8A FN3 domains (1 μM diluted in a 3-fold dilution series) as analytes simultaneously in the horizontal orientation over the captured hCD8A-Fc surfaces, with a sixth analyte channel containing only running buffer PBST. All interactions were measured at 100 uL/min flow rate with association and dissociation times being 4, 30 minutes respectively. […] Data analyses were performed using Bio-Rad ProteOn Manager software (version 3.1.0.6). Raw data were double referenced by subtraction of the interspot (empty chip surface, no protein immobilized or captured) signals to correct the non-specific binding of the FN3 domain to the pre-coated GAH-Fc IgG surface, followed by a double referencing using the buffer blank response (to correct for any baseline drift resulting from ligand dissociation over time). […]

Assay [7] has the same target. The assay can be described thus: SPR (ProteOn), captured hCD8A-Fc, heterogeneous ligand fit, lower affinity population. Here is the method: as §2

Where a chain is given by its changes, count along the chain named. Numbers in names are those of the source.

T3 sequence (P01732 other isoform, or with tags, fused parts or gaps limits assumed): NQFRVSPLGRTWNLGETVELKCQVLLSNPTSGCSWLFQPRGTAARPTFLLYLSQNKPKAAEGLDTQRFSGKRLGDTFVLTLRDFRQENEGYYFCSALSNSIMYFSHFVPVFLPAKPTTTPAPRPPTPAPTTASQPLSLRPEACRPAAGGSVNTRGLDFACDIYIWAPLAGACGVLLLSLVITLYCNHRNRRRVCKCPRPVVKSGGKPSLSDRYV
T2 sequence (P01732 22-235): as the sequence (P01732 22-235) above

B1: Tencon27 (designed binder)
chain: LPAPKNLVVSRVTEDSARLSWTAPDAAFDSFLIQYQESEKVGEAIVLTVPGSERSYDLTGLKPGTEYTVSIYGVKGGHRSNPLSAIFTT
notes: negative control scaffold; also called Stabilized Tencon
As for B1, in the assay with human CD8A on cells, the binding result is on record as “no binding”.

B2: CD8S369 (designed binder)
chain: LPAPKNLVVSRVTEDSARLSWAKRPGAFDSFLIQYQESEKVGEAIVLTVPGSCRSYDLTGLKPGTEYTVSIYGVDVKYDIDSRPISSNPLSAIFTT
notes: P283AR9P1362_D6 with E54C; the entry holds the mutation
Regarding B2, the EC50 worked out at 124 nM in assay [1] and 72.3 nM in assay [2]. Also, the dissociation constant Kd in assay [3] turned out to be 2.81 nM.

B3: CD8S370 (designed binder)
chain: LPAPKNLVVSRVTEDSARLSWTAPDAAFDSFAITYIEKEHIEDGEAIVLTVPGSCRSYDLTGLKPGTEYWVPIWGVKGGANSWPLSAIFTT
notes: P282DR9P1359_G7 with E54C; the entry holds the mutation
As to B3, the EC50 came to 209 nM in assay [1] and 67.6 nM in assay [2]. The affinity in assay [3], expressed as Kd, was 0.869 nM.

B4: P282DR9P1359_F5 (designed binder)
chain: LPAPKNLVVSRVTEDSARLSWTAPDAAFDSFQIAYPEWPPPGEAIVLTVPGSERSYDLTGLKPGTEYFVIIQGVKGGVESWPLSAIFTT
notes: FN3 domain (Centyrin); purified as His-tagged protein, tag not in the entry
As to B4, the koff came to 5.78e-05 s⁻¹ in assay [4], 1.42e-05 s⁻¹ in assay [5] and 6.6e-05 s⁻¹ in assay [7]. Moreover, the Kd in assay [5] amounted to 0.04 nM; in assay [6] it was 6.6 nM. In addition, the kon turned out to be 380000 M⁻¹ s⁻¹ in assay [5] and 34800 M⁻¹ s⁻¹ in assay [7].

B5: CD8S367 (designed binder)
chain: B4 chain with Q32A, P41Q, E53C, I70V, Q72Y, V78S, E79Y, W81A
notes: P282DR9P1359_F7 with E54C; the entry holds the mutation
Regarding B5, the EC50 in assay [1] came to 194 nM; in assay [2], 50.8 nM. In assay [3], this molecule yielded a Kd of 0.225 nM.

B6: CD8S368 (designed binder)
chain: B4 chain with E53C
notes: P282DR9P1359_F5 with E54C; the entry holds the mutation
In the case of B6, the EC50 in assay [1] was 155 nM; in assay [2], 70 nM. This molecule also yielded a Kd in assay [3] of 0.459 nM.

B7: CD8S365 (designed binder)
chain: LPAPKNLVVSRVTEDSARLSWTAPDAAFDSFGILYYEPVDSGEAITLPVPGSCRSYDLTGLKPGTEYWVVITGVKGGAPSTPLGTIFTT
notes: P282ER9P1360_C8 with E54C; the entry holds the mutation
Regarding B7, the EC50 in assay [1] amounted to 556 nM; in assay [2], 124 nM. The Kd in assay [3] was found to be 0.167 nM.

B8: CD8S366 (designed binder)
chain: LPAPKNLVVSRVTEDSARLSWTAPDAAFDSFWITYPEWPDPGGEAIVLTVPGSCRSYDLTGLKPGTEYFVVIYGVKGGEIYSPLSAIFTT
notes: P282DR9P1359_C5 with E54C; the entry holds the mutation
For B8, the EC50 worked out at 163 nM in assay [1] and 69.5 nM in assay [2]. The Kd in assay [3] stood at 0.123 nM.
